Legend:
[1] = molecular target: Full baseplate complex of phage Phi4.2 (Dit, Tal, RBP1, RBP2) (Lactococcus phage Phi4.2); assay: negative stain electron microscopy; purified baseplate complexes at 0.03 mg/mL on carbon-coated grids, Ca2+ in the protein buffer; baseplate to back-to-back dimer of baseplates
[2] = molecular target: ΔRBP1_(Phi4.2) baseplate complex (Dit, Tal, RBP2) (Lactococcus phage Phi4.2); assay: as above

Substance	stoichiometry N [1]	stoichiometry N [2]
Full baseplate complex of phage Phi4.2 (Dit, Tal, RBP1, RBP2)	2	
ΔRBP1_(Phi4.2) baseplate complex (Dit, Tal, RBP2)		2

— article PMC6315561
